Experiment [1] concerns the target human CD47 on engineered CHO-K1 cells (human) (UniProt Q08722). Kind of experiment: competition FACS against human SIRPα-His (1 µg/mL) on CHOK1-huCD47 cells; ligand only 1086.
The target is the same in experiment [2]. Nature of the experiment: FACS on CHO-K1 cells expressing human CD47 (CHOK1-huCD47), goat anti-human IgG-Fc PE; blank (Neg) 34.8.
The target of experiment [3] is cynomolgus monkey CD47 on engineered CHO-K1 cells (cynomolgus monkey). Kind of experiment: FACS on CHO-K1 cells expressing cynomolgus CD47 (CHOK1-cynoCD47), goat anti-human IgG-Fc PE; blank (Neg) 47.6.
The target in experiment [4] is human CD47 ECD protein (human) (UniProt Q08722). Kind of experiment: competition ELISA against human SIRPα-His (1 µg/mL) on plate-coated human CD47 ECD; ligand only 1.438. Background: In an ELISA, binding on a coated surface is turned into a signal by an enzyme label.
Experiment [5] concerns the target CD47 on human red blood cells (human) (UniProt Q08722). Nature of the experiment: FACS on human red blood cells, goat anti-human IgG-Fc PE; blank (Neg) 232.
Experiment [6] has as its target human CD47 ECD protein (human) (UniProt Q08722). Nature of the experiment: ELISA on plate-coated human CD47 ECD (1 µg/mL), goat anti-human IgG-Fc-HRP, OD450; blank (Neg) 0.102.
Experiment [7] concerns the target CD47 on human origin tumor cells (human) (UniProt Q08722). Nature of the experiment: FACS on CaLu-6 cells.
For experiment [8] the target is unchanged. Nature of the experiment: FACS on HepG2 cells.
For experiment [9] the target is unchanged. Nature of the experiment: FACS on Hut78 cells.
For experiment [10] the target is unchanged. Kind of experiment: FACS on Jurkat.268 cells.
Experiment [11] shares this target. Nature of the experiment: FACS on 293F cells.
For experiment [12] the target is unchanged. Nature of the experiment: FACS on BxPC-3 cells.
For experiment [13] the target is unchanged. Kind of experiment: FACS on A431 cells.
Experiment [14] shares this target. Kind of experiment: FACS on MDA-MB-453 cells.
The target in experiment [15] is CD3.his. Kind of experiment: non-specific binding ELISA, protein coated 1 µg/mL.
In experiment [16] the target is CD22.his. Nature of the experiment: non-specific binding ELISA, protein coated 1 µg/mL.
Experiment [17] addresses CD40.his. Nature of the experiment: non-specific binding ELISA, protein coated 1 µg/mL.
The target in experiment [18] is Factor Eight. Kind of experiment: non-specific binding ELISA, protein coated 1 µg/mL.
Experiment [19] has as its target PD-1.his (Homo sapiens (Human)) (UniProt Q15116). Kind of experiment: non-specific binding ELISA, protein coated 1 µg/mL.
Experiment [20] deals with HER3.his (Homo sapiens (Human)) (UniProt P21860). Nature of the experiment: non-specific binding ELISA, protein coated 1 µg/mL.
Experiment [21] deals with FGFR.his. Kind of experiment: non-specific binding ELISA, protein coated 1 µg/mL.
For experiment [22], the target named is CD147.his. Kind of experiment: non-specific binding ELISA, protein coated 1 µg/mL.
Experiment [23] has as its target HSA. (UniProt P02768). Nature of the experiment: non-specific binding ELISA, protein coated 1 µg/mL.
In experiment [24] the target is CTLA4.his. Nature of the experiment: non-specific binding ELISA, protein coated 1 µg/mL.
Experiment [25] concerns the target OX40.his. Nature of the experiment: non-specific binding ELISA, protein coated 1 µg/mL.
The target in experiment [26] is VEGFR2.his. Nature of the experiment: non-specific binding ELISA, protein coated 1 µg/mL.
The target of experiment [27] is VEGF.his. Kind of experiment: non-specific binding ELISA, protein coated 1 µg/mL.
In experiment [28] the target is 4-1B8.his. Nature of the experiment: non-specific binding ELISA, protein coated 1 µg/mL.
In experiment [29] the target is CD47 on human origin tumor cells (human) (UniProt Q08722). Kind of experiment: FACS on Ramos cells.
The target is the same in experiment [30]. Nature of the experiment: FACS on HT29 cells.
For experiment [31] the target is unchanged. Kind of experiment: FACS on A204 cells.
For experiment [32] the target is unchanged. Nature of the experiment: FACS on FaOb cells.
The target is the same in experiment [33]. Nature of the experiment: FACS on BT474 cells.
The target is the same in experiment [34]. Kind of experiment: FACS on A375 cells.

Chain of PD-1.his (Homo sapiens (Human)) (Q15116 25-170 limits assumed): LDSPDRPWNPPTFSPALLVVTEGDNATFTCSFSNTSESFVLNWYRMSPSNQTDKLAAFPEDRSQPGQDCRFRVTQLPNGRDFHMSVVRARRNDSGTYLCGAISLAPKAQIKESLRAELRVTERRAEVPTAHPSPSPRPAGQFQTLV
Chain of CD40.his (P25942 21-193): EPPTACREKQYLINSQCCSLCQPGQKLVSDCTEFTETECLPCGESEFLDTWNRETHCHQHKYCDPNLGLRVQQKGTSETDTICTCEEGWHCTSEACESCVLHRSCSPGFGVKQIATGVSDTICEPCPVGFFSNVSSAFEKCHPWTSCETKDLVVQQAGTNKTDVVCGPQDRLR
Chain of 4-1B8.his (Q07011 24-186): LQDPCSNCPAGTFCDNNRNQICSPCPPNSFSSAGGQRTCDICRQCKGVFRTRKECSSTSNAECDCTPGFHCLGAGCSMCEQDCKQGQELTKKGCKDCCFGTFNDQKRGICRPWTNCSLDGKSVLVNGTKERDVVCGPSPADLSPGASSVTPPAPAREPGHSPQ
Chain of CTLA4.his (P16410 36-161): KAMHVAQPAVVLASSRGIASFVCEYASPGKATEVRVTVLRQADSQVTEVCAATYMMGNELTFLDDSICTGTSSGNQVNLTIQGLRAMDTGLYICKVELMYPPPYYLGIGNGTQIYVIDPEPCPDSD
Chain of VEGFR2.his (P35968 20-764): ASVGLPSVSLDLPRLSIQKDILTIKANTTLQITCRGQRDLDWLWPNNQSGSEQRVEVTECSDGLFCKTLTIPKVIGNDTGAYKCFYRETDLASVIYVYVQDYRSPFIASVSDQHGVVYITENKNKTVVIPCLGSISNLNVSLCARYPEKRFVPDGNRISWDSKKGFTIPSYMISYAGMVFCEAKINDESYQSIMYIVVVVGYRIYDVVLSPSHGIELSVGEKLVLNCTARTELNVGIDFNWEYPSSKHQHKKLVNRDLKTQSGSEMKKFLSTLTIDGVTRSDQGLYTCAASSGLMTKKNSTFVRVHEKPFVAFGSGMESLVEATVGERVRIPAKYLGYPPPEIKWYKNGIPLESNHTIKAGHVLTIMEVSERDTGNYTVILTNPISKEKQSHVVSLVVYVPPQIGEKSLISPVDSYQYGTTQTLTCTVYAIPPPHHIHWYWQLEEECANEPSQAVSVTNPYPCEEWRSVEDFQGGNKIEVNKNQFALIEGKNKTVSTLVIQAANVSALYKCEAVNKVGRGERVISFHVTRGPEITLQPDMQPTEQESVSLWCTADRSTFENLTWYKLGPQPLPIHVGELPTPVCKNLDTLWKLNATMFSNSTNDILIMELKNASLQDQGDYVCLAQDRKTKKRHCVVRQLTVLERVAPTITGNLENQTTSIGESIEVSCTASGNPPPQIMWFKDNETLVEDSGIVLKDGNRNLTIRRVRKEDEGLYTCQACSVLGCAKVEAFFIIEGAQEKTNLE
Chain of OX40.his (P43489 29-214): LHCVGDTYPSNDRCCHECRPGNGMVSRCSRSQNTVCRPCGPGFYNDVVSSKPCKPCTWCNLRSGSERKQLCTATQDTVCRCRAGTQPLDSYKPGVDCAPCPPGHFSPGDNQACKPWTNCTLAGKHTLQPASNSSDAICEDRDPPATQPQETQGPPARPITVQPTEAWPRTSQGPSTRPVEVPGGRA

Consider IgG4 isotype control (antibody), for which the Max Inhibit% in [1] amounted to 12.2%; in experiment [4] it was 21.2%. For the same substance, the Min MFI in experiment [1] was determined as 953 MFI. The Max MFI in experiment [2] worked out at 66 MFI; in experiment [3], 97.9 MFI; in experiment [5], 238 MFI. In [4], this substance yielded a Min OD of 1.13 OD450. In experiment [6], this substance displayed a Max OD of 0.123 OD450.

As for hIgG4K Isotype control (antibody), the MFI came to 23.3 in experiment [7]; 32.2 in [8]; 49.7 in experiment [9]; 36.9 in [10]; 56.4 in experiment [11]; 42.9 in experiment [12]. Also, the MFI in experiment [13] was found to be 39.5; in [14], 32.2; in experiment [29], 74.4; in experiment [30], 44.3; in experiment [31], 34.7; in experiment [32], 36.2. Besides, the MFI in experiment [33] is 20.8; in [34] it was 22.8. Also, the ELISA-OD450 came out at 0.0479 in [15]; 0.0451 in [16]; 0.213 in [17]; 0.181 in experiment [18]; 3.71 in experiment [19]; 0.044 in experiment [20]. Besides, the ELISA-OD450 stood at 0.133 in experiment [21]; 0.0424 in [22]; 0.322 in [23]; 0.0562 in experiment [24]; 0.0508 in experiment [25]; 0.0432 in [26]. Besides, the ELISA-OD450 was 0.0452 in experiment [27] and 0.0463 in [28].

In the case of hIgG4L Isotype control (antibody), the MFI in experiment [7] was 88.4; in experiment [8], 27.3; in experiment [9], 50.2; in [10], 64.3; in experiment [11] it was 28.7; in experiment [12] it was 110. The MFI in experiment [13] worked out at 251; in [14], 28.3; in [29] it was 68.4; in [30], 45.7; in experiment [31], 42.4; in experiment [32] it was 429. Also, the MFI in experiment [33] worked out at 19.1; in experiment [34], 49.5. In addition, the ELISA-OD450 in experiment [15] was 0.0518; in experiment [16] it was 0.0467; in experiment [17], 0.205; in [18], 0.0481; in experiment [19], 0.227; in experiment [20] it was 0.0445. The ELISA-OD450 turned out to be 0.137 in [21]; 0.0443 in experiment [22]; 0.335 in experiment [23]; 0.0571 in experiment [24]; 0.051 in experiment [25]; 0.0441 in experiment [26]. Also, the ELISA-OD450 in experiment [27] and in experiment [28] was 0.0463 in each case.

The values are drawn from patent US20220403023A1.
